Publication PMC5515880 (Scientific Reports, 2017)

T1: GST-N protein (MHV N protein as a GST fusion construct) (mouse hepatitis virus (MHV-A59), UniProt P03416 1-454)
T1 sequence: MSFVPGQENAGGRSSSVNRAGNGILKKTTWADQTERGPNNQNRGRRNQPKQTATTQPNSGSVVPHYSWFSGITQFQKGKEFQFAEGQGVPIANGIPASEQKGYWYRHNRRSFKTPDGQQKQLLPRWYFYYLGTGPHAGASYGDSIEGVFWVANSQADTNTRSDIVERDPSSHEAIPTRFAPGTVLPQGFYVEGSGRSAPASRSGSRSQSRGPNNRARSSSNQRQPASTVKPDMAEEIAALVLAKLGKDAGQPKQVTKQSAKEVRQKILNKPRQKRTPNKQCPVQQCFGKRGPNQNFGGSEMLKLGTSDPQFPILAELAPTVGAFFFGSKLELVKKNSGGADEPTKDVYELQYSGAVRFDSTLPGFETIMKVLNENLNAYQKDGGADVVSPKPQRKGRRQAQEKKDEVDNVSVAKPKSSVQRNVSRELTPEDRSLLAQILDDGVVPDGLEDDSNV

T2: 6xHis-tagged N2b-N3 truncation of MHV N protein (mouse hepatitis virus (MHV-A59), UniProt P03416 258-454)
T2 sequence: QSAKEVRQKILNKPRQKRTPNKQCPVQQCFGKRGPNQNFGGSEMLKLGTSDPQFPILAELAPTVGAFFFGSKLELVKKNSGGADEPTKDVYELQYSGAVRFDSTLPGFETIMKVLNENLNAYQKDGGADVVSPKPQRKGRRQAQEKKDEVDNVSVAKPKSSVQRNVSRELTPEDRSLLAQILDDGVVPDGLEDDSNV

B1: 6xHis-tagged full length MHV N protein (natural protein)
chain: T1 sequence
B2: GST-N1 (MHV N protein truncation) (domain or fragment)
chain: MSFVPGQENAGGRSSSVNRAGNGILKKTTWADQTERGPNNQNRGRRNQPKQTATTQPNSGSVVPHYSWFSGITQFQKGKEFQFAEGQGVPIANGIPASEQKGYWYRHNRRSFKTPDGQQKQLLPRWYFYYLGTGPHAGASYGDSIEGVFWVANSQADTNTRSDIVERDPSSHEAIPTRFAPGTVLPQGFYVEGS

Legend:
[1] = target: T1, GST-N protein (MHV N protein as a GST …); assay: pull-down; details: one partner purified
[2] = target: T2, 6xHis-tagged N2b-N3 truncation of MHV N …; assay: pull-down; details: one partner purified

Row | Binder | binding result [1] | binding result [2]
1 | B1 | binds | –
2 | B2 | – | binds
